Target: T1, Nox1 (UniProt Q9Y5S8 1-564, limits assumed)
T1 sequence (looked up): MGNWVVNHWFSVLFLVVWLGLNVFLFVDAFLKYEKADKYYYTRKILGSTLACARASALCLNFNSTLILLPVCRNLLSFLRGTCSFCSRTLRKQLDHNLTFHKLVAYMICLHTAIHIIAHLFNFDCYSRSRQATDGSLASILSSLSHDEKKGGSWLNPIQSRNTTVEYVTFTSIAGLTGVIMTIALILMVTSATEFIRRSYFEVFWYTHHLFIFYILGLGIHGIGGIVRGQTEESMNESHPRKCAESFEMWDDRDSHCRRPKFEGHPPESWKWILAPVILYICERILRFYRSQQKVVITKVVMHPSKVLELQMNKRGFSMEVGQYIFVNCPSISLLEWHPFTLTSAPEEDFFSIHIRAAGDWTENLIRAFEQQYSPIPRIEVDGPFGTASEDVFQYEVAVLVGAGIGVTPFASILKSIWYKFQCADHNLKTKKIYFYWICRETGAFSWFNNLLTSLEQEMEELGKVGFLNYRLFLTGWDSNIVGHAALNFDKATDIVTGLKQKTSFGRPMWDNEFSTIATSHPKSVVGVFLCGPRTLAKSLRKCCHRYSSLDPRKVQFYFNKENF
Experiment: cell-based or functional assay

inhibition of O2^- production by Nox1-transfected COS22 cells (SOD-inhibitable cytochrome c reduction), IC50: 19 nM
Binder: H-EPVDALGKAKV-NH2 [NoxA1ds]
